# Test results from patent publication US20260070974A1 (NONA BIOSCIENCES SUZHOU, published 2026).
# “And” between values parts separate entries of the source, which are not always exact repeats. Identical values can stand only once.
# T1: human Siglec-15 ECD-his protein (Acrobiosystems, Cat #: SG5-H52H3) (human, UniProt Q6ZMC9 20-263)
# T1 construct: Bought protein; only its extracellular domain stood in the assay; also called human Siglec-15 protein; recombinant human Siglec-15 protein; not shown: his tag
# T1 sequence: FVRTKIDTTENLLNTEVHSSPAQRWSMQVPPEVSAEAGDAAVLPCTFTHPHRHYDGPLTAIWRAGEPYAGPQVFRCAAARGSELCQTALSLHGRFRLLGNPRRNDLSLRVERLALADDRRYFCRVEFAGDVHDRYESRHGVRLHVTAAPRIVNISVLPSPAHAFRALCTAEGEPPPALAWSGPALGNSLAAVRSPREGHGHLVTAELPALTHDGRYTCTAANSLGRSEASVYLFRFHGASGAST
# T2: cynomolgus monkey Siglec-15-his protein (Acrobiosystems, Cat #: SG5-C52H6) (cynomolgus monkey, UniProt Q6ZMC9 20-263 (human entry))
# T2 construct: Bought protein; also called cynomolgus monkey Siglec-15 protein; not shown: his tag
# T2 chain: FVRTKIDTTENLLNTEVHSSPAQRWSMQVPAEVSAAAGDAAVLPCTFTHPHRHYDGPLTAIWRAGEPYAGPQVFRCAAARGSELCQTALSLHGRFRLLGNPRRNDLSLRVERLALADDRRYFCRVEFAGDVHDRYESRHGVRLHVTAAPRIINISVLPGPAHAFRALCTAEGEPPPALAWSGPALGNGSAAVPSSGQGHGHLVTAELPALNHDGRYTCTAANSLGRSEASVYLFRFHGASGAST
# T3: human Siglec-15 on CHO-K1/human Siglec-15 cells (KYinno, Beijing) (human, UniProt Q6ZMC9 20-328)
# T3 sequence: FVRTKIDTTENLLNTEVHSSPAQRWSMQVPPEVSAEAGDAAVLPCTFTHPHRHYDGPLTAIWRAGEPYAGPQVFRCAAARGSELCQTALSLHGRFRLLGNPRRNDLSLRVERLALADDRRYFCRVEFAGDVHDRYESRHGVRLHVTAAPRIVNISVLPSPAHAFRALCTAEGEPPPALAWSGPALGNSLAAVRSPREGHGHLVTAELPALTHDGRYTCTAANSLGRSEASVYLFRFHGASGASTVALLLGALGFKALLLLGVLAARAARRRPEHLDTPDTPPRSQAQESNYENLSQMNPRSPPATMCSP
# What was measured:
# [1] = molecular target: T1, human Siglec-15 ECD-his protein …; assay: ELISA, coated human Siglec-15 ECD-his
# Experimental: […] human Siglec-15 ECD-his protein (Acrobiosystems, Cat #: SG5-H52H3) dissolved in PBS was added to an ELISA plate at 100 μL/well for coating and the plate was incubated overnight at 4° C. The ELISA plate was then blocked with PBST (PBS+0.05% Tween 20) containing 2% BSA at 200 μL/well and incubated at 37° C. for 1 h. The ELISA plate was washed 4 times with PBST. The anti-Siglec-15 antibody diluted in a gradient (5-fold dilution, starting concentration: 6.67 nM) was added to the ELISA plate at 100 μL/well and the plate was incubated at 37° C. for 1 h. The ELISA plate was washed 4 times with PBST. The goat anti-human IgG (H+L)-HRP (1:5000, Jackson, Cat #: 109-035-088) was added at 100 μL/well and the plate was incubated at 37° C. for 1 h. The ELISA plate was washed 4 times with PBST. The TMB substrate (Biopanda, Cat #: TMB-S-003) was added at 100 μL/well, and the plate was incubated at room temperature for 5 min, and then the stop buffer (Solarbio, Cat #: C1058) was added at 100 μL/well to stop the reaction.
# [2] = molecular target: T2, cynomolgus monkey Siglec-15-his protein …; assay: ELISA, coated cynomolgus monkey Siglec-15-his
# Experimental: […] cynomolgus monkey Siglec-15-his protein (Acrobiosystems, Cat #: SG5-C52H6) dissolved in PBS was added to an ELISA plate at 100 μL/well for coating and the plate was incubated overnight at 4° C. The ELISA plate was then blocked with PBST (PBS+0.05% Tween 20) containing 2% BSA at 200 μL/well and incubated at 37° C. for 1 h. The ELISA plate was washed 4 times with PBST. The anti-Siglec-15 antibody diluted in a gradient (5-fold dilution, starting concentration: 6.67 nM) was added to the ELISA plate at 100 µL/well and the plate was incubated at 37° C. for 1 h. The ELISA plate was washed 4 times with PBST. The goat anti-human IgG (H+L)-HRP (1:5000, Jackson, Cat #: 109-035-088) was added at 100 μL/well and the plate was incubated at 37° C. for 1 h. The ELISA plate was washed 4 times with PBST. The TMB substrate (Biopanda, Cat #: TMB-S-003) was added at 100 μL/well, and the plate was incubated at room temperature for 5 min, and then the stop buffer (Solarbio, Cat #: C1058) was added at 100 μL/well to stop the reaction.
# [3] = molecular target: T3, human Siglec-15 on CHO-K1/human …; assay: flow cytometry on CHO-K1/human Siglec-15 cells
# Experimental: CHO-K1/human Siglec-15 cells (KYinno, Beijing) were adjusted to a density of 1×10⁶/mL with PBS, and the cell suspension was added to a 96-well V-bottom plate at 100 μL/well. The 96-well V-bottom plate was centrifuged at 1000 rpm for 5 min and washed once with PBS+2% FBS. The cells were resuspended in […] of antibody diluted in a gradient (5-fold dilution, starting concentration: 500 nM) and incubated at 4° C. for 1 h, and PR300066 and hIgG1 were used as positive control and negative control, respectively. After 1 h, the cells were washed twice with PBS+2% FBS. The cells were incubated with 100 μL of Alexa Fluor 488 goat anti-human IgG (Jackson, Cat #: 109-545-098) at 4° C. for 1 h in the dark and then washed twice with PBS+2% FBS. The cells were then resuspended in 200 μL of PBS+2% FBS. The fluorescence intensity of the cells was analyzed using a BD FACSCanto™ II flow cytometer.
Binder,EC50 [1],EC50 [2],EC50 [3],Maximum (MFI) [3] [MFI]
"PR300066 (Tab) (antibody, human IgG1, kappa, V domains shown, variable region from clone 5G12 of WO 2018/057735A1, on human IgG1/kappa constant regions; also called 5G12) VH: QVQLQQPGAELVKPGASVKMSCKASGYTFTSYWITWVIQRPGQGLEWIGDIYCGSDTMHYNEKFKNKATLTVDTSSSTAYMQLSSLTSEDSAVYYCARWWDYGSSYDYFDYWGQGTTLTVSS VL: DIKMTQSPSSMYASLGERVTITCKASQDINSYLSWFQQKPGKSPKTLIYRANRLVDGVPSRFSGSGSGQDYSLTISSLEYEDMGIYYCLQYDEFPYTFGGGTKLEIKR",22 pM and 21 pM and 12 pM,25 pM and 12 pM,3660 pM and 2200 pM and 1640 pM,–
"PR301285 (antibody, human IgG1, kappa, V domains shown) VH: QVQLQESGPGLVKPSETLSLTCTVSGGSMISYYWSWLRQPPGKGLEWIGYIYYSGNTNYNPSLKSRITIAVDTSKNQFSLKLNSVTAADTAVYYCARERELHPYYFDYWGQGTLVTVSS VL: DIQLTQSPSFLSASVGDRVTITCRASQGIDNYLAWYQQKPGKAPKVLIYAASTLQSGVPSRFSGSGSGTEFTLTISSLQPEDFATYYCQQLNSYPLTFGGGTKVEIKR",31 pM,38 pM,553 pM,20300
"PR301286 (antibody, human IgG1, kappa, V domains shown, Parent of the PTM variants PR301286-1, -3, -5, -6, -7) VH: QVQLVESGGGVVQPGKSLRLSCAASGFTFSSYGMHWVRQAPGKGLEWVAVIWIDGSNRYYAASVKGRFTISRDNSKNTLYLQMNSLRAEDTAVYYCTRGYGDYAYVMDVWGQGASVTVSS VL: DIVMTQSPLSLPVTPGEPASISCRSSQSLLPGNGYNYLDWYLQKPGQSPQLLIYLGSNRASGVPDRFSGSGSGTDFTLKISRVEAEDVGIYYCMQALQSPLTFGGGTKVEIKR",27 pM and 18 pM and 22 pM,90 pM,1980 pM,24200
"PR301289 (antibody, human IgG1, kappa, V domains shown, Parent of the PTM variants PR301289-1 and -2) VH: QVQLVQSGAEVKKPGASVKVSCRASGYTFTSYDINWVRQATGQGLEWMGWMNPHSGDTGYAQNFQGRVTMTWNTSISTAYMELSSLRSEDTAVYYCARRRVGVYYYGMDVWGQGTTVTVSS VL: ENVLTQSPGTLSLSPGERATLSCRASQSVSSSYFGWYQQKPGQAPRLLIYGASSRATGIPDRFSGSGSGTDFTLTISRLEPEDFAVYYCQQYGSSPITFGQGTRLEIKR",27 pM and 58 pM,104 pM,1040 pM,29200
